# What was measured:
# [1] = reported value for Adcetris; cited from earlier work
# [2] = Rat safety study with cAC10 ADCs 115, 116 and Adcetris; type: in vivo, Wistar rats; details: as in legend of FIG. 19a-c: 115/116 at 40, 60, 70 or 80 mg/kg, Adcetris at 15, 20 or 40 mg/kg, mean body weight
# Description: […] The test items were administered via intravenous (bolus) injection using a microflex infusion set introduced into a tail vein (2 mL/kg at 1 mL/min). One group of animals was treated with vehicle (control). After dosing, all animals were maintained for a 12-day observation period. Surviving animals were euthanized on day 12. Each animal was weighed at the time of randomization/selection, prior to dosing (day 0) and on all subsequent days up to day 12. Any individual animal with a single observation of >30% body weight loss or three consecutive measurements of >25% body weight loss was euthanized. All animals (including any found dead or killed moribund) were submitted to full necropsy procedures. Histopathological examinations of the liver, spleen and sciatic nerve was performed for all animals. Blood samples (including for animals killed moribund) were collected and subjected to determination of both haematological as well as serum clinical chemistry parameters.
# [3] = tested on: Trastuzumab having high-mannose glycans; assay: Trimming of high-mannose trastuzumab glycans by EndoSH; type: biochemical; details: 1 w/w % EndoSH, 37° C., after 3 hours, 25 mM Tris pH 8, MS analysis
# Description: Trastuzumab having high-mannose glycans (obtained via transient expression in CHO K1 cells in the presence of kifunensine performed by Evitria (Zurich, Switzerland)) (14 mg/mL) in 25 mM Tris buffer pH 8, was trimmed using a concentration of either 0.1 or 1 w/w % EndoSH. The reactions, 350 μg high-mannose trastuzumab (25 μL) and the appropriate amount of EndoSH, were stirred at 37° C. and analyzed by MS analysis over time, 1-3 hours. Samples were subjected to Fabricator treatment prior to analysis.
# [4] = tested on: Trastuzumab; assay: Trimming of trastuzumab glycans by EndoSH; type: biochemical; details: 0.1 w/w % EndoSH, 37° C., after 1 hour, 25 mM Tris pH 8, MS analysis
# Description: Trastuzumab (obtained from Epirus biopharma (Utrecht, The Netherlands); 14 mg/mL) in 25 mM Tris buffer pH 8, was trimmed using a concentration of either 0.1 or 1 w/w % EndoSH. The reactions, 350 μg trastuzumab (25 μL) and the appropriate amount of EndoSH, were stirred at 37° C. and analyzed by MS analysis over time, 1 to 3 hours. Samples were subjected to Fabricator treatment prior to analysis.
Molecule,MTD (reported) [1],MTD [2],conversion to the trimmed product (core GlcNAc) [3],conversion to the trimmed product (core GlcNAc) [4]
Adcetris: positive control; DAR4 ADC with antibody brentuximab and payload MMAE [reference compound],18 mg/kg,15 mg/kg,–,–
"EndoSH (protein, fusion protein EndoSH) MPSIDSLHYLSENSKKEFKEELSKAGQESQKVKEILAKAQQADKQAQELAKMKIPEKIPMKPLHGPLYGGYFRTWHDKTSDPTEKDKVNSMGELPKEVDLAFIFHDWTKDYSLFWKELATKHVPKLNKQGTRVIRTIPWRFLAGGDNSGIAEDTSKYPNTPEGNKALAKAIVDEYVYKYNLDGLDVDVEHDSIPKVDKKEDTAGVERSIQVFEEIGKLIGPKGVDKSRLFIMDSTYMADKNPLIERGAPYINLLLVQVYGSQGEKGGWEPVSNRPEKTMEERWQGYSKYIRPEQYMIGFSFYEENAQEGNLWYDINSRKDEDKANGINTDITGTRAERYARWQPKTGGVKGGIFSYAIDRDGVAHQPKKYAKQKEFKDATDNIFHSDYSVSKALKTVMLKDKSYDLIDEKDFPDKALREAVMAQVGTRKGDLERFNGTLRLDNPAIQSLEGLNKFKKLAQLDLIGLSRITKLDRSVLPANMKPGKDTLETVLETYKKDNKEEPATIPPVSLKVSGLTGLKELDLSGFDRETLAGLDAATLTSLEKVDISGNKLDLAPGTENRQIFDTMLSTISNHVGSNEQTVKFDKQKPTGHYPDTYGKTSLRLPVANEKVDLQSQLLFGTVTNQGTLINSEADYKAYQNHKIAGRSFVDSNYHYNNFKVSYENYTVKVTDSTLGTTTDKTLATDKEETYKVDFFSPADKTKAVHTAKVIVGDEKTMMVNLAEGATVIGGSADPVNARKVFDGQLGSETDNISLGWDSKQSIIFKLKEDGLIKHWRFFNDSARNPETTNKPIQEASLQIFNIKDYNLDNLLENPNKFDDEKYWITVDTYSAQGERATAFSNTLNNITSKYWRVVFDTKGDRYSSPVVPELQILGYPLPNADTIMKTVTTAKELSQQKDKFSQKMLDELKIKEMALETSLNSKIFDVTAINANAGVLKDCIEKRQLLKKGGGGSGGGGSGGGGSHHHHHHEFGGGGSGGGGSGGGGSAPAPVKQGPTSVAYVEVNNNSMLNVGKYTLADGGGNAFDVAVIFAANINYDTGTKTAYLHFNENVQRVLDNAVTQIRPLQQQGIKVLLSVLGNHQGAGFANFPSQQAASAFAKQLSDAVAKYGLDGVDFDDEYAEYGNNGTAQPNDSSFVHLVTALRANMPDKIISLYNIGPAASRLSYGGVDVSDKFDYAWNPYYGTWQVPGIALPKAQLSPAAVEIGRTSRSTVADLARRTVDEGYGVYLTYNLDGGDRTADVSAFTRELYGSEAVRTP",–,–,Full conversions,Full conversions
